Source: US20260049143A1 (KYMAB, published 2026)

T1: mouse ICOS-mFc (Chimerigen) (mouse, UniProt Q9WVS0 21-141, limits assumed)
T1 construct: Bought fusion; also called mICOS; recombinant mouse ICOS protein; not shown: mouse Fc
T1 sequence: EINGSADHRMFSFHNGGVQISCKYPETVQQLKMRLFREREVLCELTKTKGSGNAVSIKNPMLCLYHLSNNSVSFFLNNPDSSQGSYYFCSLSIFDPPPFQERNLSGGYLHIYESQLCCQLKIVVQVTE

T2: human ICOS-mFc (Chimerigen) (human, UniProt Q9Y6W8 21-140, limits assumed)
T2 construct: Bought fusion; also called hICOS; recombinant human ICOS protein; not shown: mouse Fc
T2 sequence: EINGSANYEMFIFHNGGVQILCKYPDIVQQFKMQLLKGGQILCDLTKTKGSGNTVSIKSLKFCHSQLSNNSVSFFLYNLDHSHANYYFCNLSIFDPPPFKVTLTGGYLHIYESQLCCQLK

T3: Biotinylated human ICOS protein (human, UniProt Q9Y6W8 21-140, limits assumed, biotinylated)
T3 sequence: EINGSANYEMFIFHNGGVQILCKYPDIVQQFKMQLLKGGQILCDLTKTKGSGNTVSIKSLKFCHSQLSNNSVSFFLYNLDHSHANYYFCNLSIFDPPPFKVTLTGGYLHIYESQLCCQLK

T4: mouse ICOS expressed on CHO cells (mouse, UniProt Q9WVS0 21-141)
T4 construct: the cell-expressed form may differ; also called mICOS; CHO mouse ICOS
T4 sequence: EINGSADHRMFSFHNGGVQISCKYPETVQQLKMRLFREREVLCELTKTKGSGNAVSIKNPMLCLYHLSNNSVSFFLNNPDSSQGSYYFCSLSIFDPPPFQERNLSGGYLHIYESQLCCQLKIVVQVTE


Key:
[1] = target: T1, mouse ICOS-mFc (Chimerigen); experiment: DELFIA ELISA, coated mouse ICOS-mFc, N=1
Description: (§1) Recombinant ICOS proteins, human ICOS-mFc or mouse ICOS-mFc (Chimerigen) were diluted in 1×PBS and added to Black Hi-bind plates (Griener) at 1 μg/ml, 50 μl/well. Recombinant PD-L1 proteins, human PD-L1-Flag-His or mouse-His were diluted in 1×PBS and added to Black Hi-bind plates (Griener) at 4 μg/ml, 50 μl/well. The plates were left overnight at 4° C. The next day plates were washed 3× with 300 μl/well of 1×PBS+0.1% Tween and blocked with 200 μl/well of 1×PBS+1% BSA blocking buffer for 1 hr at RT on a plate shaker. Plates were washed 3× with 300 μl/well of 1×PBS+0.1% Tween.
(§2) However, human-PD-L1 mAb² antibodies were diluted in 1×PBS+0.1% BSA buffer and diluted 1 in 2 from a starting working concentration of 0.066 μM over an 11 point titration. Titrated antibodies were added to the plates, 50 μl/well and left to incubate for 1 hr at R.T on a plate shaker. Plates were washed 3× with 300 μl/well of 1×PBS+0.1% Tween.
(§3) DELFIA® Eu-labelled Anti-human IgG(Perkin-Elmer) was diluted 1:500 in DELFIA Assay buffer (Perkin-Elmer) and added to the assay plate (50 μl/well), left to incubate for 1 hr at RT on a plate shaker. […] After incubation, assay was read on Envision plate reader (Perkin Elmer), Time-resolved fluorescence (TRF) was measured at 615 nm.

[2] = target: T2, human ICOS-mFc (Chimerigen); experiment: DELFIA ELISA, coated human ICOS-mFc, N=3
Description: as §1, §2, §3

[3] = target: T3, Biotinylated human ICOS protein; experiment: avidity SPR (ProteOn), biotinylated hICOS on NLC chip; calculated on-rate
Description: Biotinylated human ICOS protein diluted at 7.5 μg/mL in running buffer (1×HBS-EP+Buffer Technova, cat. No. H8022) was captured on a NLC sensor chip (Bio-Rad, cat No 1765021). The surface was then blocked using biocytin (Sigma Aldrich, cat No B1758) at 1 mg/mL.
The assay was carried out at 25° C.
The buffer injection (i.e. 0 nM) was used to double reference the sensorgrams. The analysis was carried out using the equilibrium model inherent to the ProteOn's analysis software for each mAb² construct.

[4] = target: T2, human ICOS-mFc (Chimerigen); experiment: HTRF neutralisation of human B7-H2 binding to human ICOS-mFc, n2
Description: (§4) 5 μl of human ICOS-mFc (Chimerigen) at 20 nM (5 nM final) or 5 μl of mouse ICOS-mFc (Chimerigen) at 4 nM (1 nM final) were added to relevant assay wells. Plate was incubated for 1 hour (hr) at room temperature (RT).
(§5) After incubation, assay was read on Envision plate reader (Perkin Elmer) using a standard HTRF protocol. 620 nm and 665 nm channel values were exported to Microsoft Excel and % Delta-F and % Neutralisation calculations performed. Titration curves and IC50 values [M] were plotted using Graphpad (Prism). IC50 values were calculated by first transforming the data using equation X=Log(X). The transformed data was then fitted using nonlinear regression, using fitting algorithm, log (inhibitor) vs. response-variable slope (four parameters).

[5] = target: T1, mouse ICOS-mFc (Chimerigen); experiment: HTRF neutralisation of mouse B7-H2 binding to mouse ICOS-mFc, n1
Description: as §4, §5

[6] = target: T4, mouse ICOS expressed on CHO cells; experiment: flow cytometry, CHO mouse ICOS cells, anti-human IgG AF647, N=2
Description: (§6) CHO-S cells transfected with either human ICOS or mouse ICOS were resuspended in FACS buffer (PBS+1% w/v BSA+0.1% w/v sodium azide) and transferred to a 96-well V-bottom plate (Greiner) at a density of 1×10⁵ cells per well. mAb and mAb² were titrated in FACS buffer, 1 in 3 dilution across 11 points from a starting working concentration of 400 nM. Plates were centrifuged at 300×g for 3 minutes, supernatant discarded and 50 μL mAb or mAb² solution were added to cells and incubated at 4° C. for 1 hour. Cells were washed with 150 μL of PBS and centrifuged at 300×g for 3 minutes, supernatant was discarded and cell pellet resuspended in 150 μL PBS added. This wash step was repeated twice. […] Cells were incubated for 1 hour at 4° C. in the dark. Cells were washed with 150 μL of PBS and centrifuged at 300 g for 3 minutes, supernatant was discarded and cell pellet resuspended in 150 μL PBS added. This wash step was repeated twice. Cells were fixed with 25 μL 4% v/v paraformaldehyde, incubated for 20 minutes at 4° C., cells were pelleted by centrifugation at 300×g and the supernatant discarded. Cells were washed with 150 μL of PBS and centrifuged at 300 g for 3 minutes, supernatant was discarded and cell pellet resuspended in 150 μL PBS added. This wash step was repeated. Pelleted cells were resuspended in 110 μL 1×PBS.

[7] = target: T2, human ICOS-mFc (Chimerigen); experiment: DELFIA ELISA, coated human ICOS-mFc, mean
Description: as §1, §2, §3

[8] = target: T2, human ICOS-mFc (Chimerigen); experiment: HTRF neutralisation of human B7-H2 binding to human ICOS-mFc, n1
Description: as §4, §5

[9] = target: T4, mouse ICOS expressed on CHO cells; experiment: flow cytometry, CHO mouse ICOS cells, anti-human IgG AF647, mean
Description: as §6

| EC50 [1] | EC50 [2] | kon [3] | IC50 [4] | IC50 [5] | EC50 [6] | EC50 [7] | IC50 [8] | EC50 [9] | Binder |
| --- | --- | --- | --- | --- | --- | --- | --- | --- | --- |
| 23.6 nM | 9.17 nM | 37600 M⁻¹ s⁻¹ | 1.32 nM | 3.39 nM | 3.53 nM | 12.6 nM | 1.1 nM | 5.21 nM | STIM001_457 (bispecific antibody, V domains shown, not shown: a dimerising Fc or GST, mAb^2 IgG1; also called STIM001_457 mAb^2) VH: QVQVVQSGAEVKKPGASVKVSCKASGYTFSTFGITWVRQAPGQGLEWMGWISAYNGDTNYAQNLQGRVIMTTDTSTSTAYMELRSLRSDDTAVYYCARSSGHYYYYGMDVWGQGTTVTVSS VL: DIVMTQSPLSLPVTPGEPASISCRSSQSLLHSNEYNYLDWYLQKPGQSPQLLIFLGSNRASGVPDRFSGSGSGTDFTLKITRVEAEDVGIYYCMQSLQTPLTFGGGTKVEIK |
| 0.327 nM | 0.401 nM | 275000 M⁻¹ s⁻¹ | 0.47 nM | 0.087 nM | 11 nM | 0.43 nM | 0.44 nM | 10.6 nM | STIM003_457 (bispecific antibody, V domains shown, not shown: a dimerising Fc or GST, mAb^2 IgG1; also called ST1M003_457; STIM003_457 mAb^2) VH: EVQLVESGGGVVRPGGSLRLSCVASGVTFDDYGMSWVRQAPGKGLEWVSGINWNGGDTDYSDSVKGRFTISRDNAKNSLYLQMNSLRAEDTALYYCARDFYGSGSYYHVPFDYWGQGILVTVSS VL: EIVLTQSPGTLSLSPGERATLSCRASQSVSRSYLAWYQQKRGQAPRLLIYGASSRATGIPDRFSGDGSGTDFTLSISRLEPEDFAVYYCHQYDMSPFTFGPGTKVDIK |
